According to article PMC2659241 (The Journal of Biological Chemistry, 2009):

Biological target: Recombinant human moesin FERM domain (human, UniProt P26038 2-295)
Assay: cross-linking

Recombinant human moesin FERM domain, sequence (P26038 2-295): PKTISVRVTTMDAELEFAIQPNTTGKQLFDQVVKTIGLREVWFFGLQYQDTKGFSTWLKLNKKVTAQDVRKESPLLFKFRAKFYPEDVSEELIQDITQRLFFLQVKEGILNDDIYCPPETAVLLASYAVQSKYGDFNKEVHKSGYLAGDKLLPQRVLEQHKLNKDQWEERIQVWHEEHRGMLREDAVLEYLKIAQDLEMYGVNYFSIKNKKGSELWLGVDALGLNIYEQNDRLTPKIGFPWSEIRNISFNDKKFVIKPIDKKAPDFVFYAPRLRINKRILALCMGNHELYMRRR

stoichiometry N: 1
Binder: RRLKKGKKSKRSMNDPY [L-selectin cytoplasmic tail peptide]
